# Measurements: article PMC8036718, “Two Be or Not Two Be: The Nuclear Autoantigen La/SS-B Is Able to Form Dimers and Oligomers in a Redox Dependent Manner” (International Journal of Molecular Sciences, 2021)
# T1: full-length human La protein (La 1-408) (human, UniProt P05455 1-408)
# T1 construct: Cloned into pET28b; also called La/SS-B; wild-type La protein
# T1 sequence (looked up): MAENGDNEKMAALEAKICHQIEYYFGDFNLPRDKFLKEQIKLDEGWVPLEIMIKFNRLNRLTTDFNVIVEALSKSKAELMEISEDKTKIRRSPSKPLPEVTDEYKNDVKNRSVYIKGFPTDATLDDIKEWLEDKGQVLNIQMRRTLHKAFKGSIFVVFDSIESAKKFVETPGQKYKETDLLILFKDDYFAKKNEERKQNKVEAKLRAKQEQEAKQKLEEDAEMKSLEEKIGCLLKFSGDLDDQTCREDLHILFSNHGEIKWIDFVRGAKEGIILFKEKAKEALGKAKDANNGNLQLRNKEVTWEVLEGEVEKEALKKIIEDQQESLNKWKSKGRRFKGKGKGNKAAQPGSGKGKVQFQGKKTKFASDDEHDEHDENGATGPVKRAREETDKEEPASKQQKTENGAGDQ
# B1: LaC, C-terminal La fragment aa194-408 (domain or fragment, human, UniProt P05455 194-408, looked up)
# chain: EERKQNKVEAKLRAKQEQEAKQKLEEDAEMKSLEEKIGCLLKFSGDLDDQTCREDLHILFSNHGEIKWIDFVRGAKEGIILFKEKAKEALGKAKDANNGNLQLRNKEVTWEVLEGEVEKEALKKIIEDQQESLNKWKSKGRRFKGKGKGNKAAQPGSGKGKVQFQGKKTKFASDDEHDEHDENGATGPVKRAREETDKEEPASKQQKTENGAGDQ
# Tests used:
# [1] = molecular target: the molecule itself; assay: non-reducing SDS-PAGE and immunoblotting; purified La proteins as isolated (untreated) or treated with 2 mM CuSO4 (oxidized), sample buffer without ß-mercaptoethanol; blots with anti-La mAb SW5 or 7B6; shows only species held by disulfide bridges
# [2] = molecular target: T1, full-length human La protein (La 1-408); assay: SPR; full-length human La protein (La1-408) covalently linked to the sensor chip; BSA-coupled chip as control; La 1-408 or deletion mutants as analytes; conditions: both partners purified
# [3] = molecular target: B1; assay: far-Western, overlay or dot blot; His-tagged La fragments separated by SDS-PAGE and blotted; after blocking the membrane was incubated with unlabeled full-length La protein (or LaN); bound probe detected with the anti-La mAb SW5 (Figure 5C also with 5B9); conditions: both partners purified
# [4] = molecular target: T1, full-length human La protein (La 1-408); assay: as above; conditions: both partners purified
binding result [2],Binder,other results
,"mono cysteine mutant of La protein (La_C18A) (natural protein, human, UniProt P05455 1-408, looked up, La protein, human, with Cys18 changed to alanine; Runs as 50 kDa La protein) MAENGDNEKMAALEAKIAHQIEYYFGDFNLPRDKFLKEQIKLDEGWVPLEIMIKFNRLNRLTTDFNVIVEALSKSKAELMEISEDKTKIRRSPSKPLPEVTDEYKNDVKNRSVYIKGFPTDATLDDIKEWLEDKGQVLNIQMRRTLHKAFKGSIFVVFDSIESAKKFVETPGQKYKETDLLILFKDDYFAKKNEERKQNKVEAKLRAKQEQEAKQKLEEDAEMKSLEEKIGCLLKFSGDLDDQTCREDLHILFSNHGEIKWIDFVRGAKEGIILFKEKAKEALGKAKDANNGNLQLRNKEVTWEVLEGEVEKEALKKIIEDQQESLNKWKSKGRRFKGKGKGNKAAQPGSGKGKVQFQGKKTKFASDDEHDEHDENGATGPVKRAREETDKEEPASKQQKTENGAGDQ",binding result [1]: binds
,"double cysteine mutant of La protein (La_C232A_C245A) (natural protein, human, UniProt P05455 1-408, looked up, La protein, human, with Cys232 and Cys245 changed to alanine) MAENGDNEKMAALEAKICHQIEYYFGDFNLPRDKFLKEQIKLDEGWVPLEIMIKFNRLNRLTTDFNVIVEALSKSKAELMEISEDKTKIRRSPSKPLPEVTDEYKNDVKNRSVYIKGFPTDATLDDIKEWLEDKGQVLNIQMRRTLHKAFKGSIFVVFDSIESAKKFVETPGQKYKETDLLILFKDDYFAKKNEERKQNKVEAKLRAKQEQEAKQKLEEDAEMKSLEEKIGALLKFSGDLDDQTAREDLHILFSNHGEIKWIDFVRGAKEGIILFKEKAKEALGKAKDANNGNLQLRNKEVTWEVLEGEVEKEALKKIIEDQQESLNKWKSKGRRFKGKGKGNKAAQPGSGKGKVQFQGKKTKFASDDEHDEHDENGATGPVKRAREETDKEEPASKQQKTENGAGDQ",stoichiometry N [1]: 2
binds,"La 1-245 (domain or fragment, human, UniProt P05455 1-245, looked up, La protein, human, residues 1-245 (lacks the Dim domain)) MAENGDNEKMAALEAKICHQIEYYFGDFNLPRDKFLKEQIKLDEGWVPLEIMIKFNRLNRLTTDFNVIVEALSKSKAELMEISEDKTKIRRSPSKPLPEVTDEYKNDVKNRSVYIKGFPTDATLDDIKEWLEDKGQVLNIQMRRTLHKAFKGSIFVVFDSIESAKKFVETPGQKYKETDLLILFKDDYFAKKNEERKQNKVEAKLRAKQEQEAKQKLEEDAEMKSLEEKIGCLLKFSGDLDDQTC",
binds,"La 1-371 (domain or fragment, human, UniProt P05455 1-371, looked up, La protein, human, residues 1-371 (holds the Dim domain)) MAENGDNEKMAALEAKICHQIEYYFGDFNLPRDKFLKEQIKLDEGWVPLEIMIKFNRLNRLTTDFNVIVEALSKSKAELMEISEDKTKIRRSPSKPLPEVTDEYKNDVKNRSVYIKGFPTDATLDDIKEWLEDKGQVLNIQMRRTLHKAFKGSIFVVFDSIESAKKFVETPGQKYKETDLLILFKDDYFAKKNEERKQNKVEAKLRAKQEQEAKQKLEEDAEMKSLEEKIGCLLKFSGDLDDQTCREDLHILFSNHGEIKWIDFVRGAKEGIILFKEKAKEALGKAKDANNGNLQLRNKEVTWEVLEGEVEKEALKKIIEDQQESLNKWKSKGRRFKGKGKGNKAAQPGSGKGKVQFQGKKTKFASDDEHD",
binds,"La 239-408 (domain or fragment, human, UniProt P05455 239-408, looked up) DLDDQTCREDLHILFSNHGEIKWIDFVRGAKEGIILFKEKAKEALGKAKDANNGNLQLRNKEVTWEVLEGEVEKEALKKIIEDQQESLNKWKSKGRRFKGKGKGNKAAQPGSGKGKVQFQGKKTKFASDDEHDEHDENGATGPVKRAREETDKEEPASKQQKTENGAGDQ",
,"LaN, C-terminally truncated La fragment aa1-192 (domain or fragment, human, UniProt P05455 1-192, looked up, La protein, human, residues 1-192 (La motif plus RRM1 domain); also called La 1-192) MAENGDNEKMAALEAKICHQIEYYFGDFNLPRDKFLKEQIKLDEGWVPLEIMIKFNRLNRLTTDFNVIVEALSKSKAELMEISEDKTKIRRSPSKPLPEVTDEYKNDVKNRSVYIKGFPTDATLDDIKEWLEDKGQVLNIQMRRTLHKAFKGSIFVVFDSIESAKKFVETPGQKYKETDLLILFKDDYFAKK",binding result [3]: binds
binds,"La 278-408 (domain or fragment, human, UniProt P05455 278-408, looked up) KAKEALGKAKDANNGNLQLRNKEVTWEVLEGEVEKEALKKIIEDQQESLNKWKSKGRRFKGKGKGNKAAQPGSGKGKVQFQGKKTKFASDDEHDEHDENGATGPVKRAREETDKEEPASKQQKTENGAGDQ",
,B1,binding result [4]: binds
